This assay addresses Nrp1 immobilized on the BLI biosensor (UniProt Q9QWJ9). As to the kind of experiment: BLI. On the technique in general: Biolayer interferometry detects binding as a change in optical thickness at a sensor tip.

This note sets out measurements from paper PMC4754353.

What is called Kd is the constant that tells how readily two partners part at equilibrium. High values mean lower affinity, low ones higher affinity.

With “human glycyl-tRNA synthetase L129P mutant (L129P-GlyRS^CMT2D), non-tagged (enzyme)”, the dissociation constant Kd came to 29.8 nM. This counts as double-digit nanomolar.

The substance “human glycyl-tRNA synthetase P234KY mutant (P234KY-GlyRS^CMT2D), non-tagged (enzyme)” displayed a Kd of 209 nM.
